Measurements published in publication PMC7430568.

Assays:
[1] = biological target: SARS-CoV-2 Spike* (mutant, pre-fusion stabilised Spike protein ectodomain) (SARS-CoV-2, Wuhan-Hu-1)
[2] = biological target: SARS-CoV-2 Spike* (mutant, pre-fusion stabilised Spike protein ectodomain) (SARS-CoV-2, Wuhan-Hu-1); experiment: SPR

Nb6-tri (trivalent Nb6 with two 20 amino acid linkers) (VHH)
IC50 [1]: 1.5 nM
kd2 (slow phase of dissociation) [2]: < 1e-06 s⁻¹

mNb6-tri (trivalent mNb6) (VHH)
IC50 [1]: 0.4 nM
Kd [2]: < 0.001 nM
